From PMC13213242, “A novel ψ–χ fusion protein for unravelling the contributions of χ to DNA replication and repair” (Nucleic Acids Research, 2026)
Read-outs that look alike come from different tables or passages of the source. Values belong to the molecule of their own block, whether it stands above or below them.

Tests used:
[1] = molecular target: beta clamp (Escherichia coli) (UniProt P0A988); details: cited from earlier work
[2] = molecular target: beta clamp (Escherichia coli) (UniProt P0A988); details: cited from earlier work; remark: listed apart in the source
[3] = molecular target: β-AF488_(2) (β sliding clamp R103C/I305C/C260S/C333S labelled with Alexa Fluor 488) (E. coli) (UniProt P0A988); experiment: other fluorescence titration; γ complex titrated into β-AF488_(2) (20 nM in the text, 10 nM in the legend) with 0.5 mM ATP; relative AF488 intensity at 520 nm, excitation 495 nm; reaction buffer 20 mM Tris–HCl pH 7.5, 50 mM NaCl, 8 mM MgCl2, 5 mM DTT, 0.5 mM EDTA, 40 μg/ml BSA, 4% glycerol; three independent experiments
[4] = molecular target: T1, WT γ complex clamp loader (γ3δδ′ψχ) (E. coli, UniProt P06710-2 1-431; P28630 1-343; P28631 1-334; P28632 1-137; P28905 1-147); experiment: as above; details: both partners purified
T1 construct: DNA polymerase III subunit γ, the truncated form of DnaX made by a translational frameshift, E. coli; DNA polymerase III subunit δ, E. coli; DNA polymerase III subunit δ′, E. coli; DNA polymerase III subunit ψ, E. coli; DNA polymerase III subunit χ, E. coli; also called WT clamp loader; source: expressed and purified as described previously [12, 25–28]; copies: 3 + + + +

Molecule: gamma complex clamp loader (from UniProt P06710)
- Kd [1]: 3.3 nM
- Kd [2]: 3.2 nM

B1: β-AF488_(2) (β sliding clamp R103C/I305C/C260S/C333S labelled with Alexa Fluor 488) (natural protein, E. coli, UniProt P0A988 1-366, looked up)
chain: MKFTVEREHLLKPLQQVSGPLGGRPTLPILGNLLLQVADGTLSLTGTDLEMEMVARVALVQPHEPGATTVPARKFFDICRGLPEGAEIAVQLEGERMLVRSGCSRFSLSTLPAADFPNLDDWQSEVEFTLPQATMKRLIEATQFSMAHQDVRYYLNGMLFETEGEELRTVATDGHRLAVCSMPIGQSLPSHSVIVPRKGVIELMRMLDGGDNPLRVQIGSNNIRAHVGDFIFTSKLVDGRFPDYRRVLPKNPDKHLEAGSDLLKQAFARAAILSNEKFRGVRLYVSENQLKITANNPEQEEAEECLDVTYSGAEMEIGFNVSYVLDVLNALKSENVRMMLTDSVSSVQIEDAASQSAAYVVMPMRL
modifications: Alexa Fluor 488 (maleimide) on the introduced surface Cys residues (R103C, I305C)
notes: DNA polymerase III β sliding clamp, E. coli; labelled at both sides of the dimer interface; also called β-AF88_(2); β-R103C/I305C/C260S/C333S; source: expressed and purified as described previously; labelled with AF488 maleimide, purified (BioGel P6-DG desalting, HiTrap Q)
- Kd [4]: 2 nM

Other lines, results leading:

- Kd [3]: 4.2 nM
Molecule: γ complex containing ψ–GS8–χ (γ3δδ′ψ–GS8–χ) (from UniProt P06710-2 1-431; P28630 1-343; P28631 1-334; P28632 1-137)

- Kd [3]: 2.1 nM
Molecule: γ complex containing ψ–GS12–χ (γ3δδ′ψ–GS12–χ) (from UniProt P06710-2 1-431; P28630 1-343; P28631 1-334; P28632 1-137)
